Experimental data from article PMC4346194 (Structure (London, England : 1993), 2015).

Tests used:
Assay in all cases: pull-down
[1] = molecular target: T1, GST-tagged FL-importin α3 (human, UniProt O00629 1-521)
T1 sequence: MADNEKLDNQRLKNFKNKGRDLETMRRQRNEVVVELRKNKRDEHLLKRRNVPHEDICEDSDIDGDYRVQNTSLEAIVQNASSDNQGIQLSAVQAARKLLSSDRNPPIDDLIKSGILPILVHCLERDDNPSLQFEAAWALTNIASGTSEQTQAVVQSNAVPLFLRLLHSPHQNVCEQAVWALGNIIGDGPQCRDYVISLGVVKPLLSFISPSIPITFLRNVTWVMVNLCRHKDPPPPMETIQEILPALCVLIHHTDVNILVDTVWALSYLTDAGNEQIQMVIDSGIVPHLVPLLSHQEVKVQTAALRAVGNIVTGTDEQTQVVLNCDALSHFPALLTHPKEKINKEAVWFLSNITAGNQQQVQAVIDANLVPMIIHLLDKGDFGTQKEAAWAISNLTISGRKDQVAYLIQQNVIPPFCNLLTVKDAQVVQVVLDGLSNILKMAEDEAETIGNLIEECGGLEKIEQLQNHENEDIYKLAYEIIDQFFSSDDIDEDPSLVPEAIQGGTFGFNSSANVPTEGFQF

[2] = molecular target: T2, GST-tagged FL-importin α3 (RRRR) (human, UniProt O00629 1-521, Q28R)
T2 sequence: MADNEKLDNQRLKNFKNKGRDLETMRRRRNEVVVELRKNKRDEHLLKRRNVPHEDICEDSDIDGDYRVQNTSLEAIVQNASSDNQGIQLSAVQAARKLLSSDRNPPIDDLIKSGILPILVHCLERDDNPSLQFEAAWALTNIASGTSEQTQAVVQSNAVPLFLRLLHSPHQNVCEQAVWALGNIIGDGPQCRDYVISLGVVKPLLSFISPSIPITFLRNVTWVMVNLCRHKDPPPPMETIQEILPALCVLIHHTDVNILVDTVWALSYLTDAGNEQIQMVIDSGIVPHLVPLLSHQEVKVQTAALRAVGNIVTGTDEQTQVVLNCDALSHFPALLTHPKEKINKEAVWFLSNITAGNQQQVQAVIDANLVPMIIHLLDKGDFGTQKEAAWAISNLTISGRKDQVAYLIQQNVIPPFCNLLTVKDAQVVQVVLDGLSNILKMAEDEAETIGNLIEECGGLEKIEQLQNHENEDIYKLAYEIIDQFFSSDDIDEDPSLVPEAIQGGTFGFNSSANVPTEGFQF

[3] = molecular target: GST-tagged FL-importin α1 (mouse, UniProt P52293 1-529)
[4] = molecular target: GST-tagged FL-importin α7 (human, UniProt O60684 1-536)

Q: With KRPAATKKAGQAKKKK [MBP-tagged nucleoplasmin NLS (NP-NLS, res. 155-170)] as the binder, how does the “percent of importin α bound to cargo” value [1] read?
A: 35%

Q: What about the “percent of importin α bound to cargo” value [2] of the same binder?
A: 27%

Q: What about the “percent of importin α bound to cargo” value [3] of the same binder?
A: 25%

Q: And the “percent of importin α bound to cargo” value [4]?
A: 46%
